Reference: patent US5756291
Where two headings read alike, the source gives them in different places.

Tests used:
[1] = target: kallikrein (UniProt P03952+P03952); test: filter; conditions: ~1 uM protein
[2] = target: thrombin (alpha, Factor IIa) (Homo sapiens) (UniProt P00734+P00734); test: filter

kallikrein, sequence (P03952 20-390, chain 1 of 2): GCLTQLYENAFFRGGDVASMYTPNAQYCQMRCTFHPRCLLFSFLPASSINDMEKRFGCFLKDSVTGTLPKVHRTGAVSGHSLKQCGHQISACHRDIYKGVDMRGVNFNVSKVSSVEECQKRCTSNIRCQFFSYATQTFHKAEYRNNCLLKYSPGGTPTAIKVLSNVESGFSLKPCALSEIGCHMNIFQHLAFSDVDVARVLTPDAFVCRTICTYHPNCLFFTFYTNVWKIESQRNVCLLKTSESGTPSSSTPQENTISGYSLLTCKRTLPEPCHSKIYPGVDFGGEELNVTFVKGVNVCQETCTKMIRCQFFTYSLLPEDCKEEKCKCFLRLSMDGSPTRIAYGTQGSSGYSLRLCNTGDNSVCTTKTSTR
kallikrein, sequence (P03952 391-638, chain 2 of 2): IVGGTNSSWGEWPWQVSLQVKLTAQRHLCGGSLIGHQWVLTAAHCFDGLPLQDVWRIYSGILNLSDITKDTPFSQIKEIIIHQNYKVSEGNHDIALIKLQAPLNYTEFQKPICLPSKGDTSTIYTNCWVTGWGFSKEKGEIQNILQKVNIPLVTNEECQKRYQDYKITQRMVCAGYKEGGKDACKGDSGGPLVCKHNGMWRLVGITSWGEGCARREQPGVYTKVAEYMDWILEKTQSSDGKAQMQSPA

CGGGGAGAGGTTGGTGTGGTTGGCAATGGCTAGAGTAGTGACGTTTTCGCGGTGAGGTCC
binding signal [1]: < 0.5 % bound

TAGAATACTCAAGCTTCGACGNNNNNNNNNNNNNNNNNNNNAGTTTGGATCCCCGGGTAC [Round 6 pool prepared with thymidine]
Kd [2]: > 10 µM

TAGAATACTCAAGCTTCGACGNNNNNNNNNNNNNNNNNNNNAGTTTGGATCCCCGGGTAC [pentynyl-dU Round 6 pool]
Kd ([2]; 5-(1-pentynyl)-dU replacing T in amplified region): 0.4 µM

TAGAATACTCAAGCTTCGACGNNNNNNNNNNNNNNNNNNNNAGTTTGGATCCCCGGGTAC [unselected pentynyl-dU pool]
Kd ([2]; 5-(1-pentynyl)-dU replacing T in amplified region, unit micro sign lost in print): > 10 µM
